The values below come from article PMC9486512 (Zoological Research, 2022).

Residue numbers refer to the chain shown, from its start. Numbers in names are those of the source. Ends that are not written are not given here. A value given as a limit tells only on which side of the number the result lay.

First the molecules themselves.
B1: Ca2a K27A (peptide)
peptide: ACLGFGEKCNPSNDKCCKSSSLVCSQAHKWCKYDL
B2: Ca2a K32A (peptide)
peptide: B1 peptide with A27K, K32A
B3: truncated peptide T7 (from Ca2a) (peptide)
peptide: CLGFGEKCNPSDKCCKSSSVCSQKHKWCKY
B4: truncated peptide T8 (from Ca2a) (peptide)
peptide: CLGFGEKCPSNDKCCSSSLVCSQKHKWCKY
B5: truncated peptide T6 (from Ca2a) (peptide)
peptide: CLGFGEKCNDKCCKSSSVCSQKHKWCKY
B6: truncated peptide T3 (from Ca2a) (peptide)
peptide: CLGFGEKCNNDKCCKSLVCQKHKWCKY
B7: truncated peptide T2 (from Ca2a) (peptide)
peptide: CLGFGEKCNPSKCCKSLVCQKHKWCKY
B8: truncated peptide T9 (from Ca2a) (peptide)
peptide: CLGFGEKCNPSNDCCKSSSLVCSQKHKWCKY
B9: truncated peptide T10 (from Ca2a) (peptide)
peptide: B8 peptide with D13K
B10: truncated peptide T11 (from Ca2a) (peptide)
peptide: B8 peptide with N12D, D13K
B11: truncated peptide T13 (from Ca2a) (peptide)
peptide: CLGFGEKCNDKCCKLVCSQHKWCKY
B12: truncated peptide T12 (from Ca2a) (peptide)
peptide: CLGFGEKCNPDCCKLVCSQKWCKY
B13: truncated peptide T5 (from Ca2a) (peptide)
peptide: CLGFGEKCNDKCCKSSSLCSQKHKWCKY
B14: truncated peptide T1 (from Ca2a) (peptide)
peptide: CLGFGEKCCCKSSSLVCSQKHKWCKY
B15: truncated peptide T4 (from Ca2a) (peptide)
peptide: CLGFGEKCNDKCCKSSSCSQKHKWCKY
B16: Ca2a W30K (peptide)
peptide: B1 peptide with A27K, W30K
B17: Ca2a F5K (peptide)
peptide: B1 peptide with F5K, A27K
B18: Ca2a H28K (peptide)
peptide: B1 peptide with A27K, H28K
B19: Ca2a Y33K (peptide)
peptide: B1 peptide with A27K, Y33K
B20: Ca2a H28R (peptide)
peptide: B1 peptide with A27K, H28R

Chain of human Nav1.7 (hNav1.7) channel (Q15858 whole entry): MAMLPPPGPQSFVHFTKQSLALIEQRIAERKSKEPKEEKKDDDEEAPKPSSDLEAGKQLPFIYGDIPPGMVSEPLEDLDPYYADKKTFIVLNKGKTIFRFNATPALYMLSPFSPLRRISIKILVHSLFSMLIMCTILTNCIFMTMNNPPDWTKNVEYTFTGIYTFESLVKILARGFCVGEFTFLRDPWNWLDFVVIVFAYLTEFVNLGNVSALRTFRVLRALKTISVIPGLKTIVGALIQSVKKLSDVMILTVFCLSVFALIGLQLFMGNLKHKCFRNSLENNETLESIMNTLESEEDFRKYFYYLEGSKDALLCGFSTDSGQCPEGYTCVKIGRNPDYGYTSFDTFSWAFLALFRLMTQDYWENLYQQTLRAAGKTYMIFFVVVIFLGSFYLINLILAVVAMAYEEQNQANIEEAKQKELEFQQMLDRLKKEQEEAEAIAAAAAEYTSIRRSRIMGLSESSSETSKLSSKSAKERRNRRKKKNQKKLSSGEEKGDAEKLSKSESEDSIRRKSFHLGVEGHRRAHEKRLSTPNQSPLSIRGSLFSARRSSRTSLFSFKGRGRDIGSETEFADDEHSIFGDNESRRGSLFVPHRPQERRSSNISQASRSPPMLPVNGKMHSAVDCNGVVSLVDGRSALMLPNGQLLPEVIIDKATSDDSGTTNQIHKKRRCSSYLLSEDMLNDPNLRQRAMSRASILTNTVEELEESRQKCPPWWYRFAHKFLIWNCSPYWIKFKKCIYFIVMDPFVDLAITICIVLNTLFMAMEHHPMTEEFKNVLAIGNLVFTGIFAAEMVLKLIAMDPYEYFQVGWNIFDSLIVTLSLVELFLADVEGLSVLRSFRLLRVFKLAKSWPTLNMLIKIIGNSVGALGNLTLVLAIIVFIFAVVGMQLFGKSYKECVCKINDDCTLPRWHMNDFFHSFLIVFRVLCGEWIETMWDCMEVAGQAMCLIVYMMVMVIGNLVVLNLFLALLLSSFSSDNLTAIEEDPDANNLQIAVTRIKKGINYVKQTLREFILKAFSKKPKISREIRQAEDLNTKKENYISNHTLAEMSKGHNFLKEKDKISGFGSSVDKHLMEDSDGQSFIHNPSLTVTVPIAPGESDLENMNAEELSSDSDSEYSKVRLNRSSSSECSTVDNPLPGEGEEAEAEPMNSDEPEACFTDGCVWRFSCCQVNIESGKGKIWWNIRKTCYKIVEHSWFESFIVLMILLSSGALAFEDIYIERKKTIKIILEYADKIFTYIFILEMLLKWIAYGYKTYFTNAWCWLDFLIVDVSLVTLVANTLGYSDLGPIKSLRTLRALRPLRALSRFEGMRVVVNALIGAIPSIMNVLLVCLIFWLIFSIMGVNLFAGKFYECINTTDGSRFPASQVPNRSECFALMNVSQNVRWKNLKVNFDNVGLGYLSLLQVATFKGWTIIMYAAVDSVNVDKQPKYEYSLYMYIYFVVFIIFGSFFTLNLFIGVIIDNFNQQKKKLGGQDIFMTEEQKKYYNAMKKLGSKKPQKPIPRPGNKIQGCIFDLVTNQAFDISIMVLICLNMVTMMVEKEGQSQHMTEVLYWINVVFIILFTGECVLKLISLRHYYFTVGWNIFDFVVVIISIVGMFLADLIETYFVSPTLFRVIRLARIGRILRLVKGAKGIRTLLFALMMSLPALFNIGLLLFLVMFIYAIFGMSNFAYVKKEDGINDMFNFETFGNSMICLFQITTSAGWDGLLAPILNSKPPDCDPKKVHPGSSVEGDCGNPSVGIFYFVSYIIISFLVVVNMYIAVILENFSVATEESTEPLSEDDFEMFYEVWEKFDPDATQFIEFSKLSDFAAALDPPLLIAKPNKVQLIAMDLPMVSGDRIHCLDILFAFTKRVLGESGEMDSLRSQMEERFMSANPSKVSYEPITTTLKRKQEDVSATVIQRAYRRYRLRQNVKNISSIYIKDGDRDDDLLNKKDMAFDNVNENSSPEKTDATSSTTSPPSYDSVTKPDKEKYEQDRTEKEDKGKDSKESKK

The first assay concerns the target human Nav1.7 (hNav1.7) channel (Homo sapiens, UniProt Q15858). The assay is described as follows: Whole-cell patch-clamp inhibition of hNav1.7 currents. The assay is classed as cell-based. The settings on record: compared to Ca2a, WT hNav1.7 in HEK293T. (In general: The patch-clamp technique gives a direct electrical read-out from membranes.)
Turning to “K18A: K18A mutant of Ca2a (ACLGFGEKCNPSNDKCCASSSLVCSQKHKWCKYDL; ends and bridges not checked; cysteine pairing not given here) [Peptide K18A]”, the “inhibitory activity against Nav1.7 (in words)” value is reported as “retained most of its inhibitory activity”.

Still in this assay, the particulars now being: ratio of mutant IC50 to WT peptide IC50, hNav1.7 in HEK293T.
“W30A: W30A mutant of Ca2a (ACLGFGEKCNPSNDKCCKSSSLVCSQKHKACKYDL; ends and bridges not checked; cysteine pairing not given here) [Peptide W30A]”: the “fold change in IC50 / affinity for Nav1.7 compared to WT Ca2a” value came out at 20 fold.

The target in the next assay is human voltage-gated sodium ion channel Nav1.7 (human).
Chain of human voltage-gated sodium ion channel Nav1.7 (human) (Q15858 whole entry): as the sequence (Q15858 whole entry) above
Test: not given
Conditions: not given
In the case of B1, the IC50 of inhibition of hNav1.7 currents, whole-cell patch clamp, HEK293T was determined as 4.07 µM.

In turn, B2 registered an IC50 of inhibition of hNav1.7 currents, whole-cell patch clamp, HEK293T above 30 µM.

The next assay shares this target.
Test: not given
Conditions: not given
This is another data set of the same source.
Consider B3, for which the IC50 of inhibition of hNav1.7 currents, whole-cell patch clamp, HEK293T is above 100 µM.

Consider B4, for which the IC50 of inhibition of hNav1.7 currents, whole-cell patch clamp, HEK293T was above 100 µM.

B5 returned an IC50 of inhibition of hNav1.7 currents, whole-cell patch clamp, HEK293T above 100 µM.

Turning to B6, the IC50 of inhibition of hNav1.7 currents, whole-cell patch clamp, HEK293T came out at 39.6 µM.

With B7, the IC50 of inhibition of hNav1.7 currents, whole-cell patch clamp, HEK293T was 16.5 µM.

B8 yielded an IC50 of inhibition of hNav1.7 currents, whole-cell patch clamp, HEK293T of 67.3 µM.

The molecule B9 had an IC50 of inhibition of hNav1.7 currents, whole-cell patch clamp, HEK293T of 53.5 µM.

As for B10, the IC50 of inhibition of hNav1.7 currents, whole-cell patch clamp, HEK293T is 49.2 µM.

Consider B11, for which the IC50 of inhibition of hNav1.7 currents, whole-cell patch clamp, HEK293T turned out to be 8.89 µM.

As for B12, the IC50 of inhibition of hNav1.7 currents, whole-cell patch clamp, HEK293T was above 50 µM.

B13 gave an IC50 of inhibition of hNav1.7 currents, whole-cell patch clamp, HEK293T above 100 µM.

B14 registered an IC50 of inhibition of hNav1.7 currents, whole-cell patch clamp, HEK293T of 14.7 µM.

B15 gave an IC50 of inhibition of hNav1.7 currents, whole-cell patch clamp, HEK293T above 100 µM.

For the next assay the target is unchanged.
Test: not given
Conditions: not given
The source holds these as a separate data set.
On to B16, for which the IC50 of inhibition of hNav1.7 currents, whole-cell patch clamp, HEK293T is above 20 µM.

The molecule B17 gave an IC50 of inhibition of hNav1.7 currents, whole-cell patch clamp, HEK293T above 20 µM.

Take B18: the IC50 of inhibition of hNav1.7 currents, whole-cell patch clamp, HEK293T was above 20 µM.

B19 returned an IC50 of inhibition of hNav1.7 currents, whole-cell patch clamp, HEK293T above 20 µM.

For the molecule B20, the IC50 of inhibition of hNav1.7 currents, whole-cell patch clamp, HEK293T is 14.9 µM.
